Laboratory results reported in paper PMC6907089.

Key:
Assay in all cases: BioID proximity labeling, quantitative mass spectrometry
Conditions in all cases: inducible HEK293 cells; read off a plot
AL1A2 = molecular target: AL1A2
AP2B1 = molecular target: AP2B1
CCD43 = molecular target: CCD43
CDKAL = molecular target: CDKAL
CHM4B = molecular target: CHM4B
CKSP2 = molecular target: CKSP2
COPA = molecular target: COPA
COPB2 = molecular target: COPB2
COPB = molecular target: COPB
COPD = molecular target: COPD
COPE = molecular target: COPE
CPIN1 = molecular target: CPIN1
DBLOH = molecular target: DBLOH
DBNL = molecular target: DBNL
DHYS = molecular target: DHYS
EFHD2 = molecular target: EFHD2
EIF3D = molecular target: EIF3D
ELP4 = molecular target: ELP4
EMC2 = molecular target: EMC2
GRWD1 = molecular target: GRWD1
ICAL = molecular target: ICAL
N4BP1 = molecular target: N4BP1
NHLC2 = molecular target: NHLC2
NSF = molecular target: NSF
NSMA3 = molecular target: NSMA3
PAPOA = molecular target: PAPOA
RFA2 = molecular target: RFA2
RFA3 = molecular target: RFA3
S23IP = molecular target: S23IP
SAHH2 = molecular target: SAHH2
SEPT9 = molecular target: SEPT9
SNP29 = molecular target: SNP29
SYAP1 = molecular target: SYAP1
TBD2B = molecular target: TBD2B
TES = molecular target: TES
TXND9 = molecular target: TXND9
VRK2 = molecular target: VRK2
WDR44 = molecular target: WDR44
XIAP = molecular target: XIAP
ZYX = molecular target: ZYX
syntaxin 5 (STX5) = syntaxin 5 (STX5) (UniProt Q13190)
Sequence of UniProt Q13190 (Q13190 whole entry): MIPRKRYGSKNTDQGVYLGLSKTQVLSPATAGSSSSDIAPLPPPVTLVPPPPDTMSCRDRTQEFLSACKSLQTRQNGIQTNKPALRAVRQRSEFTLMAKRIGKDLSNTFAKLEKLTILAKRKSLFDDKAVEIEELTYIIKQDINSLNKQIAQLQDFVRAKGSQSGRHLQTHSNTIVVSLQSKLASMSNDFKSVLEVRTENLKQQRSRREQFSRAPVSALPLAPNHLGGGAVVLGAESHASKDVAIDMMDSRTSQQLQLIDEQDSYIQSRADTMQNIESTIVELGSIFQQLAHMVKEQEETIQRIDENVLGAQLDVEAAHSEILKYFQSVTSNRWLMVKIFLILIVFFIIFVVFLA

SH3G1 = molecular target: SH3G1
TBPL1 = molecular target: TBPL1

“STING H232 (wild-type; wt) (from UniProt Q86WV6) G207E” showed a ratio to parent (AL1A2) of 0.39, a ratio to parent (AP2B1) of 0.35 and a ratio to parent (CCD43) of 0.46. It also gave a ratio to parent (CDKAL) of 0.4, a ratio to parent (CHM4B) of 0.41 and a ratio to parent (CKSP2) of 0. The ratio to parent (COPA) was 0.31, the ratio to parent (COPB2) was 0.36 and the ratio to parent (COPB) was 0.35. For the same substance, the ratio to parent (COPD) was 0.28, the ratio to parent (COPE) was 0.22 and the ratio to parent (CPIN1) was 0.46. It also gave a ratio to parent (DBLOH) of 0.48, a ratio to parent (DBNL) of 0.47 and a ratio to parent (DHYS) of 0. It also gave a ratio to parent (EFHD2) of 0.38, a ratio to parent (EIF3D) of 0.23 and a ratio to parent (ELP4) of 0.38. For the same substance, the ratio to parent (EMC2) was 0.48, the ratio to parent (GRWD1) was 0.46 and the ratio to parent (ICAL) was 0. For the same substance, the ratio to parent (N4BP1) was 0.27, the ratio to parent (NHLC2) was 0 and the ratio to parent (NSF) was 0.37. It also gave a ratio to parent (NSMA3) of 0.21, a ratio to parent (PAPOA) of 0.4 and a ratio to parent (RFA2) of 0.32. It also gave a ratio to parent (RFA3) of 0.34, a ratio to parent (S23IP) of 0.39 and a ratio to parent (SAHH2) of 0.36. For the same substance, the ratio to parent (SEPT9) was 0.3, the ratio to parent (SNP29) was 0.26 and the ratio to parent (SYAP1) was 0.41. The ratio to parent (TBD2B) was 0.39, the ratio to parent (TES) was 0.47 and the ratio to parent (TXND9) was 0.36. The ratio to parent (VRK2) was 0.46, the ratio to parent (WDR44) was 0.32 and the ratio to parent (XIAP) was 0.21. For the same substance, the ratio to parent (ZYX) was 0.29 and the ratio to parent (syntaxin 5 (STX5)) was 0.47.

With STING R232 (from UniProt Q86WV6) G207E the ratio to parent (AL1A2) was 0.05, the ratio to parent (AP2B1) was 0.72 and the ratio to parent (CCD43) was 0.38. For the same substance, the ratio to parent (CDKAL) was 0.2, the ratio to parent (CHM4B) was 0.14 and the ratio to parent (CKSP2) was 0.41. For the same substance, the ratio to parent (COPA) was 0.04, the ratio to parent (COPB2) was 0.06 and the ratio to parent (COPB) was 0.1. It also gave a ratio to parent (COPD) of 0.1, a ratio to parent (COPE) of 0.28 and a ratio to parent (CPIN1) of 0.17. It also gave a ratio to parent (DBLOH) of 0.26, a ratio to parent (DBNL) of 0.24 and a ratio to parent (DHYS) of 0. The ratio to parent (EFHD2) was 0.44, the ratio to parent (EIF3D) was 0.31 and the ratio to parent (ELP4) was 0.75. It also gave a ratio to parent (EMC2) of 0, a ratio to parent (GRWD1) of 0.26 and a ratio to parent (ICAL) of 0.57. For the same substance, the ratio to parent (N4BP1) was 0.41, the ratio to parent (NHLC2) was 0.24 and the ratio to parent (NSF) was 0.57. The ratio to parent (NSMA3) was 0.28, the ratio to parent (PAPOA) was 0.96 and the ratio to parent (RFA2) was 0.43. The ratio to parent (RFA3) was 0.47, the ratio to parent (S23IP) was 0.19 and the ratio to parent (SAHH2) was 0.2. The ratio to parent (SEPT9) was 0.12, the ratio to parent (SH3G1) was 0.2 and the ratio to parent (SNP29) was 0.09. For the same substance, the ratio to parent (SYAP1) was 0.5, the ratio to parent (TBD2B) was 0.5 and the ratio to parent (TBPL1) was 0.49. The ratio to parent (TES) was 0.72, the ratio to parent (TXND9) was 0.53 and the ratio to parent (VRK2) was 0. For the same substance, the ratio to parent (WDR44) was 0.75, the ratio to parent (XIAP) was 0.57 and the ratio to parent (ZYX) was 0.8. For the same substance, the ratio to parent (syntaxin 5 (STX5)) was 0.27.
